In publication doi:10.1101/2021.10.11.463801:

Target: DLIC1[388-523] (human)
Test: ITC

Row | Kd [nM] | stoichiometry N (DLIC1-C molecules per RH1 dimer) | Binder
1 | 1000 | 2 | JIP3[1-108] (domain or fragment) MMEIQMDEGGGVVVYQDDYCSGSVMSERVSGLAGSIYREFERLIHCYDEEVVKELMPLVVNVLENLDSVLSENQEHEVELELLREDNEQLLTQYEREKALRRQAEEKF
2 | 4000 | 2 | JIP4[1-103] (domain or fragment) MELEDGVVYQEEPGGSGAVMSERVSGLAGSIYREFERLIGRYDEEVVKELMPLVVAVLENLDSVFAQDQEHQVELELLRDDNEQLITQYEREKALRKHAEEKF
